Assay results: patent US20130245385A1

Molecular target: sHLA-A2 (soluble class I HLA-A2) (human)
Assay: 65 ml class I HLA SHARC, 24.4 mg W6/32 at 97 µg/ml in PBS

antibody recovered in the elution: 8 mg | antibody that passed through the column: 11.7 mg
Substance: W6/32 pan class I HLA monoclonal antibody
